Measured values as given in the Human Domainome abundance scans (Beltran et al. 2025).
± gives the uncertainty stated by the source.

B1: Neutrophil cytosol factor 2, residues 456 to 514; numbered along this chain, P19878 (parent)
chain: LKKGSQVEALFSYEATQPEDLEFQEGDIILVLSKVNEEWLEGECKGKVGIFPKVFVEDC

Variants of: B1
Assay: abundance fitness (aPCA) (normalised: wild type 0, dead -1); higher = more abundant; growth selection in yeast, the domain comes from the species named
Details: Homo sapiens
With LKKGSQVEALFSYEATQPEDLEFQEGDIILVLSKVNEEWLEGECKGKVGKFPKVFVEDC the abundance fitness was 0.108 ± 0.18. In the case of LKKGSQVEALFSYEATQPEDLEFQEGDIILVLSKVNEEWLEGECKGKVGFFPKVFVEDC, the abundance fitness is reported as -0.389 ± 0.14. LKKGSQVEALFSYEATQPEDLEFQEGDIILVLSKVNEEWLEGECKGKVGNFPKVFVEDC gave an abundance fitness of -0.821 ± 0.22. In the case of LKKGSQVEALFSYEATQPEDLEFQEGDIILVLSKVNEEWLEGECKGKVGGFPKVFVEDC, the abundance fitness is reported as -0.347 ± 0.12. For LKKGSQVEALFSYEATQPEDLEFQEGDIILVLSKVNEEWLEGECKGKVGHFPKVFVEDC, the abundance fitness was -0.371 ± 0.18. In the case of LKKGSQVEALFSYEATQPEDLEFQEGDIILVLSKVNEEWLEGECKGKVGAFPKVFVEDC, the abundance fitness is reported as -0.213 ± 0.17. LKKGSQVEALFSYEATQPEDLEFQEGDIILVLSKVNEEWLEGECKGKVGDFPKVFVEDC gave an abundance fitness of -0.306 ± 0.16. LKKGSQVEALFSYEATQPEDLEFQEGDIILVLSKVNEEWLEGECKGKVGCFPKVFVEDC showed an abundance fitness of -0.4 ± 0.15. With LKKGSQVEALFSYEATQPEDLEFQEGDIILVLSKVNEEWLEGECKGKVGPFPKVFVEDC the abundance fitness was 0.096 ± 0.24. For LKKGSQVEALFSYEATQPEDLEFQEGDIILVLSKVNEEWLEGECKGKVGMFPKVFVEDC, the abundance fitness was -0.621 ± 0.31. Work on LKKGSQVEALFSYEATQPEDLEFQEGDIILVLSKVNEEWLEGECKGKVGEFPKVFVEDC yielded an abundance fitness of -0.58 ± 0.32. For LKKGSQVEALFSYEATQPEDLEFQEGDIILVLSKVNEEWLEGECKGKVPIFPKVFVEDC, the abundance fitness was -0.722 ± 0.3. Variant LKKGSQVEALFSYEATQPEDLEFQEGDIILVLSKVNEEWLEGECKGKVCIFPKVFVEDC has an abundance fitness of -0.756 ± 0.17. LKKGSQVEALFSYEATQPEDLEFQEGDIILVLSKVNEEWLEGECKGKVMIFPKVFVEDC showed an abundance fitness of -0.075 ± 0.22. With LKKGSQVEALFSYEATQPEDLEFQEGDIILVLSKVNEEWLEGECKGKVHIFPKVFVEDC the abundance fitness was -0.893 ± 0.28. LKKGSQVEALFSYEATQPEDLEFQEGDIILVLSKVNEEWLEGECKGKVDIFPKVFVEDC showed an abundance fitness of -0.478 ± 0.13. For LKKGSQVEALFSYEATQPEDLEFQEGDIILVLSKVNEEWLEGECKGKVNIFPKVFVEDC, the abundance fitness was -0.735 ± 0.15. With LKKGSQVEALFSYEATQPEDLEFQEGDIILVLSKVNEEWLEGECKGKVVIFPKVFVEDC the abundance fitness was -1.05 ± 0.18. Variant LKKGSQVEALFSYEATQPEDLEFQEGDIILVLSKVNEEWLEGECKGKVFIFPKVFVEDC has an abundance fitness of -0.469 ± 0.11. With LKKGSQVEALFSYEATQPEDLEFQEGDIILVLSKVNEEWLEGECKGKVLIFPKVFVEDC the abundance fitness was -0.42 ± 0.12. Variant LKKGSQVEALFSYEATQPEDLEFQEGDIILVLSKVNEEWLEGECKGKVAIFPKVFVEDC has an abundance fitness of -0.59 ± 0.18. For LKKGSQVEALFSYEATQPEDLEFQEGDIILVLSKVNEEWLEGECKGKVRIFPKVFVEDC, the abundance fitness was -0.758 ± 0.2. Variant LKKGSQVEALFSYEATQPEDLEFQEGDIILVLSKVNEEWLEGECKGKVTIFPKVFVEDC has an abundance fitness of -0.951 ± 0.25. Variant LKKGSQVEALFSYEATQPEDLEFQEGDIILVLSKVNEEWLEGECKGKVKIFPKVFVEDC has an abundance fitness of 0.002 ± 0.19. LKKGSQVEALFSYEATQPEDLEFQEGDIILVLSKVNEEWLEGECKGKVEIFPKVFVEDC showed an abundance fitness of -0.63 ± 0.38. For LKKGSQVEALFSYEATQPEDLEFQEGDIILVLSKVNEEWLEGECKGKVIIFPKVFVEDC, the abundance fitness was -0.427 ± 0.11. LKKGSQVEALFSYEATQPEDLEFQEGDIILVLSKVNEEWLEGECKGKVWIFPKVFVEDC gave an abundance fitness of -0.137 ± 0.17. LKKGSQVEALFSYEATQPEDLEFQEGDIILVLSKVNEEWLEGECKGKVYIFPKVFVEDC showed an abundance fitness of -0.503 ± 0.12. For LKKGSQVEALFSYEATQPEDLEFQEGDIILVLSKVNEEWLEGECSGKVGIFPKVFVEDC, the abundance fitness was -0.691 ± 0.17. Work on LKKGSQVEALFSYEATQPEDLEFQEGDIILVLSKVNEEWLEGECVGKVGIFPKVFVEDC yielded an abundance fitness of -0.734 ± 0.17. LKKGSQVEALFSYEATQPEDLEFQEGDIILVLSKVNEEWLEGECIGKVGIFPKVFVEDC gave an abundance fitness of -0.937 ± 0.18. Work on LKKGSQVEALFSYEATQPEDLEFQEGDIILVLSKVNEEWLEGECQGKVGIFPKVFVEDC yielded an abundance fitness of -0.577 ± 0.5. With LKKGSQVEALFSYEATQPEDLEFQEGDIILVLSKVNEEWLEGECNGKVGIFPKVFVEDC the abundance fitness was 0.203 ± 0.096. Variant LKKGSQVEALFSYEATQPEDLEFQEGDIILVLSKVNEEWLEGECTGKVGIFPKVFVEDC has an abundance fitness of -0.562 ± 0.19. With LKKGSQVEALFSYEATQPEDLEFQEGDIILVLSKVNEEWLEGECWGKVGIFPKVFVEDC the abundance fitness was -0.125 ± 0.25. Variant LKKGSQVEALFSYEATQPEDLEFQEGDIILVLSKVNEEWLEGECRGKVGIFPKVFVEDC has an abundance fitness of 0.012 ± 0.11. In the case of LKKGSQVEALFSYEATQPEDLEFQEGDIILVLSKVNEEWLEGECYGKVGIFPKVFVEDC, the abundance fitness is reported as -0.505 ± 0.16. Variant LKKGSQVEALFSYEATQPEDLEFQEGDIILVLSKVNEEWLEGECPGKVGIFPKVFVEDC has an abundance fitness of -0.904 ± 0.28. For LKKGSQVEALFSYEATQPEDLEFQEGDIILVLSKVNEEWLEGECKGWVGIFPKVFVEDC, the abundance fitness was -0.416 ± 0.24. LKKGSQVEALFSYEATQPEDLEFQEGDIILVLSKVNEEWLEGECKGDVGIFPKVFVEDC showed an abundance fitness of -0.858 ± 0.21. Variant LKKGSQVEALFSYEATQPEDLEFQEGDIILVLSKVNEEWLEGECKGTVGIFPKVFVEDC has an abundance fitness of -0.284 ± 0.13. Variant LKKGSQVEALFSYEATQPEDLEFQEGDIILVLSKVNEEWLEGECKGNVGIFPKVFVEDC has an abundance fitness of -0.271 ± 0.1. LKKGSQVEALFSYEATQPEDLEFQEGDIILVLSKVNEEWLEGECKGAVGIFPKVFVEDC gave an abundance fitness of -1.04 ± 0.27. In the case of LKKGSQVEALFSYEATQPEDLEFQEGDIILVLSKVNEEWLEGECKGRVGIFPKVFVEDC, the abundance fitness is reported as -0.118 ± 0.11. Variant LKKGSQVEALFSYEATQPEDLEFQEGDIILVLSKVNEEWLEGECKGHVGIFPKVFVEDC has an abundance fitness of -0.673 ± 0.2.
